Reference: patent US20240174985A1, “METHOD FOR PRODUCING OVARIAN SOMATIC CELL-LIKE CELLS, AND METHOD FOR INDUCING DIFFERENTIATION OF PRIMATE PLURIPOTENT STEM CELLS INTO OVARIAN SOMATIC CELL-LIKE CELLS” (Kyoto University, priority 2021, published 2024)

Legend:
Format in all cases: cell-based
[1] = tested on: cynomolgus monkey ES cells
human iPS cells [2] = experiment: Induction of differentiation from human iPS cells into ovarian somatic cell-like cells (FACS of OSR1-tdTomato/NR5A1-EGFP reporters, observation of embryoid bodies); details: Activin A 10 ng/ml added between day 2 and day 4
Text: In order to conveniently observe the expression of genes typical at each developmental stage, a human iPS cell line 1390G3 was genetically modified, and a DNA sequence that emits red fluorescence (tdTomato) with the expression of the OSR1 gene, green fluorescence (EGFP) with the expression of the NR5A1 gene, and red fluorescence (tdTomato) with the expression of the FOXL2 gene was manufactured (see FIG. 1, and after introduction into the chromosome, a portion of “PGKp-Neo (or Puro)-pA” portion was deleted with Cre). An iPS cell line into which two DNA sequences of OSR1 and NR5A1 had been introduced (which may be hereinafter abbreviated as “OTNG”), and an iPS cell line into which two DNA sequences of NR5A1 and FOXL2 had been introduced (which may be hereinafter abbreviated as “NGFT”) were manufactured. In the present test, the OTNG strain was used in most of the experiments. Furthermore, NR5A1 and SF1 are the same gene.
The cells at each stage were analyzed using a flow cytometer (BD FACSAria III).
The ES cells of monkeys and human iPS cells are considered to be similar to EpiLC in a slightly advanced state in terms of differentiation, as compared with mouse ES cells. Therefore, in the examination using monkey or human pluripotent stem cells in the present test, step 0 was omitted and the process was started from step 1. […]

human iPS cells [3] = experiment: Quantitative PCR of marker genes in cells induced from human iPS cells; details: Activin A 10 ng/mL added between day 2 and day 4, fibronectin plane culture
Text: The relative expression level of each marker gene was confirmed using a PCR apparatus (BIO-RAD CFX384 Real-Time System) with the following primers and conditions. In the tables, the PPIA gene and the RPLP0 gene were used as housekeeping genes. The difference in qPCR is a difference from the average value taken as “(PPIA+RPLP0)/2”. In addition, the ERCC gene was used as an absolute control between samples.

B1: Activin A: TGF-β family member produced by multiple cell species during development (protein, UniProt P08476 311-426, looked up)
Inhibin beta A chain: GLECDGKVNICCKKQFFVSFKDIGWNDWIIAPSGYHANYCEGECPSHIAGTSGSSLSFHSTVINHYRMRGHSPFANLKSCCVPTKLRPMSMLYYDDGQNIIKKDIQNMIVEECGCS
[1]; added in step 1: bFGF 50 ng/mL entire period, Activin A 10 ng/ml one day from day 1, FACS days 2, 4, 6
  expression of OSR1: acted toward enhancing the expression of OSR1
[1]; addition of Activin A after day 1 of step 1, FACS days 16 and 28
  improvement of induction: no improvement was observed
[1]; bFGF 50 ng/ml and Activin A 10 ng/ml (only from day 1) in step 1, days 14 and 21
  improvement of the induction of NR5A1-positive cells: not recognized
Human iPS cells [2]; plane culture, FACS day 15
  proportion of the OSR1− (negative) and SF1+ (positive) cells: further increased
Human iPS cells [2]; step 1 plane culture on fibronectin-coated plate
  size of the embryoid bodies: increased over time
Human iPS cells [3]; day 15
  expression of GATA3 and HOXB9: decreased
Human iPS cells [3]; day 27
  expression of FOXL2: almost equivalent to that in the ovarian somatic cells collected from the living body
